Target: the molecule itself
Assay: SEC; Superdex 75 Increase 10/300 GL; 20 mM Tris-HCl pH 7.5, 500 mM NaCl, 5% glycerol, 0.5 mM TCEP; 0.5 mL/min; BSA run for comparison; dimeric state in solution

B1: CPB CP (581–808), cryptic polo-box of Plk4 with the CP mutations (domain or fragment, human, UniProt O00444 581-808, looked up)
chain: GYQNRTLRSITSPLVAHRLKPIRQKTKKAVVSILDSEEVCVELVKEYASQEYVKEVLQISSDGNTITIYYPNGGRGFPLADRPPSPTDNISRYSFDNLPEKYWRKYQYASRFVQLVREKEPKIEYFDRYAKCILMENSPGADFEVWFYDGVKIHKTEDFIQVIEKTGKSYTLKSESEVNSLKEEIKMYMDHANEGHRICLALESIISEEERKTRSAPFFPIIIGRKPG
notes: PDB 6N46 is the His6-tagged form of the same limits; PDB 4N9J is the wild-type apo-CPB; also called CBP CP; source: E. coli Rosetta, purified (HisTrap, SEC, TEV cleavage, HisTrap and MBPTrap, SEC)
- binding result: binds

— paper PMC6823436, “Phase separation of Polo-like kinase 4 by autoactivation and clustering drives centriole biogenesis” (Nature Communications, 2019)
